The text below walks through data of article PMC7102993.

Test [1] concerns the target NrS-1 polymerase C-terminal region (residues 301-718) (phage NrS-1). Description: crystal structure; B-form NrS-1 CTR crystals, space group P213, grown at 16°C in 1.6 M NaH2PO4/0.4 M K2HPO4, 0.1 M phosphate-citrate pH 4.2; two monomers per asymmetric unit, hexamer by symmetry operation; 2.4 Å.
Test [2] shares this target. Put plainly: crystal structure; A-form NrS-1 CTR crystals, space group P212121, grown at 16°C in 2.8 M sodium acetate trihydrate pH 7.0; six monomers per asymmetric unit.
The target of test [3] is full-length NrS-1 polymerase (wild type) (phage NrS-1). Put plainly: SEC; Superose 6 Increase 10/300 GL; 20 mM Tris pH 8.0, 2 mM DTT with 500 mM NaCl (high salt) or 200 mM NaCl (low salt); monomer at 15.83 ml, hexamer at 13.5 ml. (SEC sorts molecules by how far they enter the pores of the column.)
For test [4] the target is unchanged. Put plainly: negative-stain electron microscopy; protein from the first peak of the size-exclusion column, diluted to 40 μg/ml in low-salt buffer, stained with 0.75% uranyl formate; 2D class averages and 3D map (RELION).
For test [5], the target named is full-length NrS-1 polymerase K525A mutant (phage NrS-1). Description: SEC; Superose 6 Increase 10/300 GL; 20 mM Tris pH 8.0, 2 mM DTT with 500 mM NaCl (high salt) or 200 mM NaCl (low salt); monomer at 15.83 ml, hexamer at 13.5 ml.

As usually defined, the stoichiometry N is the number of molecules, sites or subunits per partner or assembly. Regarding “NrS-1 polymerase C-terminal region (residues 301-718) (domain or fragment)”, the stoichiometry N in test [1] and in test [2] was 6 throughout.

Regarding “full-length NrS-1 polymerase (wild type) (enzyme)”, the stoichiometry N in test [3] and in test [4] was 6 in each case.

Turning to “full-length NrS-1 polymerase K525A mutant (enzyme)”, the stoichiometry N in test [5] turned out to be 6.
